Measured values published in paper PMC2175144 (The Journal of Cell Biology, 2000).
Values belong to the molecule of their own block, whether it stands above or below them.

Key:
[1] = target: L1 FN3 putative C-C′ loop peptide …^852, wild type (human); assay: SDS-PAGE of peptides
[2] = target: the molecule itself; assay: SDS-PAGE without boiling, immunoblot
SEC = target: the molecule itself; assay: SEC

stoichiometry N [1]: 3
Molecule: L1 FN3 putative C-C′ loop peptide …^852, wild type

B1: L1 FN-like repeats 1-3 (FN1-3) fusion protein, as run on SDS-PAGE (domain or fragment, human, UniProt P32004 615-916, looked up)
chain: VPRLVLSDLHLLTQSQVRVSWSPAEDHNAPIEKYDIEFEDKEMAPEKWYSLGKVPGNQTSTTLKLSPYVHYTFRVTAINKYGPGEPSPVSETVVTPEAAPEKNPVDVKGEGNETTNMVITWKPLRWMDWNAPQVQYRVQWRPQGTRGPWQEQIVSDPFLVVSNTSTFVPYEIKVQAVNSQGKGPEPQVTIGYSGEDYPQAIPELEGIEILNSSAVLVKWRPVDLAQVKGHLRGYNVTYWREGSQRKHSKRHIHKDHVVVPANTTSVILSGLRPYSSYHLEVQAFNGRGSGPASEFTFSTPEG
stoichiometry N [2]: 3

B2: L1 third FN-like repeat (FN3), GST fusion protein, wild type (domain or fragment, human, UniProt P32004 814-916, looked up)
chain: AIPELEGIEILNSSAVLVKWRPVDLAQVKGHLRGYNVTYWREGSQRKHSKRHIHKDHVVVPANTTSVILSGLRPYSSYHLEVQAFNGRGSGPASEFTFSTPEG
stoichiometry N (SEC): ≥ 3
